The values below come from the supplement of paper PMC9170038.

The subject of this series is MS2 coat protein. Nature of the series: apparent KD of MS2 coat protein; designed switch direction (-1 OFF switch, 1 ON switch): -1; higher = weaker reporter binding. Put shortly: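 Each step of the titration lasted 0.8–1.5 h at the lowest concentration and 10–20 min at the highest. The protein, SNAP-549-labelled MS2 coat protein, went from 0.7 or 1.5 nM doubling to 3 µM over RNA switches transcribed on Illumina chips by stalled E. coli RNA polymerase. Normalised cluster fluorescence was curve-fitted, and the per-design median over clusters is given as apparent KD.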

Where [1] appears, read: input ligand: microRNA oligo, concentration not stated.
Setting [2] is: Eterna round: R95, input ligand: microRNA oligo, concentration not stated.

Regarding “UCGCUCCGUGUAGGAUAUCGCCGUAUGAUGCGGCGAGAAGGACAUGAGGAUCACCCAUGUAUGUUAUUAUCACGCGUGGCGCAA [Design 63] (Eterna round: R96, puzzle: Exclusion NG 1)”, the “apparent KD of MS2 coat protein” value reads like this: (input ligand: FMN 200 uM) 17.4 nM; under setting [1], 12 nM; (input ligand: none) 16.9 nM.

As for “UCGCUGCGAGGAUAUACAUGAGGAUCACCCAUGUACGGGUCCGGGUCUUUGUCUAUUGGUAGAAGGCGCAGUGA [JL Laongeedie mod 9] (puzzle: Exclusion 3)”, the “apparent KD of MS2 coat protein” value under setting [2] was found to be 51.5 nM.

As for “UCGCUGCGAGGAUAUACGUGCGCGCGCUUUCGUUUGCGCGUACAUGAGGAUCACCCAUGUAGAAGGCGCGCUGC [Apr-15 SS2-6] (puzzle: Exclusion 2)”, under setting [2], the “apparent KD of MS2 coat protein” value was 12.7 nM.

Turning to “UCGGCGCGAGGAUAUACGUUUGCGCUUUUUCGUUUUUGCGUACAUGAGGAUCACCCAUGUAGAAGGCGCGCCGC [Apr-15 SS2-17] (puzzle: Exclusion 2)”, the “apparent KD of MS2 coat protein” value under setting [2] turned out to be 14 nM.

Regarding “UCGGCGCGAGGAUAUACGUUUGCUUUUUAGGAUCGUGGCGUACAUGAGGAUCACCCAUGUAGAAGGCGCGCCGC [Apr-15 SS2-28] (puzzle: Exclusion 2)”, under setting [2], the “apparent KD of MS2 coat protein” value came to 12.4 nM.

Regarding “UCGGCGCGAGGAUAUACGUUUGCUUUUUUUUGUCGUUGCGUACAUGAGGAUCACCCAUGUAGAAGGCGCGCCGC [Apr-15 SS2-23] (puzzle: Exclusion 2)”, the “apparent KD of MS2 coat protein” value under setting [2] is 16.8 nM.

In the case of “UCGGCGCGAGGAUAUGCGGCUCCUGCUUCGGGCCGGAGCGUACAUGAGGAUCACCCAUGUAGAAGGCGCGCCGC [Apr-15 SS2-39] (puzzle: Exclusion 2)”, under setting [2], the “apparent KD of MS2 coat protein” value was found to be 10.2 nM.

On to “UCGGCGCGAGGAUAUGCGGCUGCUGCUUCGGGCCGUGGCGUACAUGAGGAUCACCCAUGUAGAAGGCGCGCCGC [Apr-15 SS2-40] (Eterna round: R96, puzzle: Exclusion 2)”, for which the “apparent KD of MS2 coat protein” value (input ligand: FMN 200 uM) is 12.9 nM, the “apparent KD of MS2 coat protein” value under setting [1] was 10.4 nM and the “apparent KD of MS2 coat protein” value (input ligand: none) came to 14.8 nM.

With “UCGGCGCGAGGAUAUGCGGCUGCUGCUUCGGGCCGUGGCGUACAUGAGGAUCACCCAUGUAGAAGGCGCGCCGC [Apr-15 SS2-40] (puzzle: Exclusion 2)”, the “apparent KD of MS2 coat protein” value under setting [2] turned out to be 11.3 nM.

Take “UCGGCGCGAGGAUAUGCGGUUCCUCCCUCGGGCCGGAGCGUACAUGAGGAUCACCCAUGUAGAAGGCGCGCCGC [Apr-15 SS2-36] (puzzle: Exclusion 2)”: under setting [2], the “apparent KD of MS2 coat protein” value was 11.7 nM.

For the sequence “UCGGCGCGAGGAUAUGCGGUUCCUUCUUCGGGCCGGAGCGUACAUGAGGAUCACCCAUGUAGAAGGCGCGCCGC [Apr-15 SS2-37] (puzzle: Exclusion 2)”, the “apparent KD of MS2 coat protein” value under setting [2] was determined as 12.6 nM.

As to “UCGGGCGCAGGAUAUGCCUUCCGGUACAUGAGGAUCACCCAUGUCGGGCAGUGCUGCGGAGUAGAAGGGCGUUGAG [Eternabot (L2) Solution 74] (Eterna round: R97, puzzle: Exclusion 5)”, the “apparent KD of MS2 coat protein” value (input ligand: FMN 200 uM) was 15.8 nM and the “apparent KD of MS2 coat protein” value (input ligand: none) came out at 16.6 nM.

On to “UCGGUGACAGGAUAUACAUGAGGAUCACCCAUGUUAAGAAGAGAAAGGGCAGGAAGAGGUAGAAGGGUCGCUGU [JL JR_Exclu3_Sub033 mod] (puzzle: Exclusion 3)”, for which the “apparent KD of MS2 coat protein” value under setting [2] was determined as 37.8 nM.

“UCGUGAUUAGAGGAUAUAUUUUGAGUCAGAACAAUAGAAGGCUAAACAUGAGGAUCACCCAUGUAUGUGUAAAA [JR_Ex6_Sub063] (Eterna round: R97, puzzle: Exclusion 6)”: the “apparent KD of MS2 coat protein” value runs as follows: (input ligand: FMN 200 uM) 184 nM; (input ligand: none) 26.9 nM.

For “UCUAGACAUGAGGAUCACCCAUGUGAGGAUAUGAUGCGAUCGUCGAAAGACGAUAGCAUCAGAAGGCACGUAUG [Fiskers Ex 1 - 14] (puzzle: Exclusion 1)”, the “apparent KD of MS2 coat protein” value under setting [2] was found to be 54.4 nM.

As for “UCUAGGAGAGGAUAUACAUGAGGAUCACCCAUGUGCAUGAUCAGGCGUCAGUCGCACCGUAGAAGGUUCCAGAA [Eternabot (L2) Solution 40] (Eterna round: R97, puzzle: Exclusion 3)”, the “apparent KD of MS2 coat protein” value is, setting by setting: (input ligand: FMN 200 uM) 89.9 nM; (input ligand: none) 47 nM.

For “UCUAGUUGGUAAGGAUAUCCUACAUUGUUCUGGCCCGGGCAUGCUACAUGAGGAUCACCCAUGUGGGAGAAGGUGCGUCAUUGC [Design 21] (Eterna round: R96, puzzle: Exclusion NG 2)”, the “apparent KD of MS2 coat protein” value is, setting by setting: (input ligand: FMN 200 uM) 44.6 nM; under setting [1], 32.2 nM; (input ligand: none) 61.9 nM.

With “UCUAUGAUGCGAGGAUAUCGACCAUUCCUCUUUACAUGAGGAUCACCCAUGUUCGUACGCUACAACGAGAAGGCGCACUAAGUU [JR_ExcNG2_Sub060] (Eterna round: R96, puzzle: Exclusion NG 2)”, the “apparent KD of MS2 coat protein” value by setting is: (input ligand: FMN 200 uM) 292 nM; under setting [1], 131 nM; (input ligand: none) 157 nM.

In the case of “UCUCGAUGGCAAGGAUAUCCUACAUUGUUCUGGCCCGGGCAUGCUACAUGAGGAUCACCCAUGUGGGAGAAGGUGCGCCACUGC [Design 26] (Eterna round: R96, puzzle: Exclusion NG 2)”, the “apparent KD of MS2 coat protein” value stood at 118 nM (input ligand: FMN 200 uM), 55 nM under setting [1] and 93.3 nM (input ligand: none).

With “UCUCGCGGGCAAGGAUAUCCUACGCUGUUCUGGCCCGUGUAUGUUACAUGAGGAUCACCCAUGUGGGAGAAGGUGCACCAGGGC [Design 40] (Eterna round: R96, puzzle: Exclusion NG 2)”, the “apparent KD of MS2 coat protein” value runs as follows: (input ligand: FMN 200 uM) 83.3 nM; under setting [1], 39.3 nM; (input ligand: none) 76 nM.

Take “UCUGGUCGAGGAUAUACAUUCGUGCUUCGGCACGUAAGAUCACAUGAGGAUCACCCAUGUAGAAGGCGACCAGA [E2/5-A3] (Eterna round: R97, puzzle: Exclusion 2)”: the “apparent KD of MS2 coat protein” value is, setting by setting: (input ligand: FMN 200 uM) 1050 nM; (input ligand: none) 98.8 nM.

“UCUGGUCGAGGAUAUGCAAUCGUGCUUCGGCACGUAAGGUCACAUGAGGAUCACCCAUGUAGAAGGCGACCAGA [E2/4-A3] (Eterna round: R97, puzzle: Exclusion 2)”: the “apparent KD of MS2 coat protein” value amounted to 34.4 nM (input ligand: FMN 200 uM) and 17.3 nM (input ligand: none).

Take “UCUGGUCGGAAGGAUAUGGUCGGGUCAAAUCGUCCAGAAGGUCUGACAUGAGGAUCACCCAUGUGAGUCCAAAG [Ataesma] (puzzle: Exclusion 6)”: the “apparent KD of MS2 coat protein” value is, setting by setting: (Eterna round: R95, input ligand: FMN 200 uM) 77.5 nM; under setting [2], 20.4 nM; (Eterna round: R95, input ligand: none) 21.8 nM.

Turning to “UCUGUUCAAGGAUAUGCGUAAGGUGUUACGGCACCAGGUCUACAUGAGGAUCACCCAUGUAGAAGGUGAUCAGA [EX2 #88] (Eterna round: R97, puzzle: Exclusion 2)”, the “apparent KD of MS2 coat protein” value (input ligand: FMN 200 uM) was found to be 22.4 nM and the “apparent KD of MS2 coat protein” value (input ligand: none) stood at 20.3 nM.

Turning to “UCUUUGUCAGGAUAUCGUGCAUACAACGAAAGUUCUAUGUGCGAGAAGGGACAUGAGGAUCACCCAUGUUACGG [Omei Ex4 A4] (Eterna round: R97, puzzle: Exclusion 4)”, the “apparent KD of MS2 coat protein” value by setting is: (input ligand: FMN 200 uM) 244 nM; (input ligand: none) 358 nM.

Turning to “UGAAAAGACCUAGGAUAUACCCAGUGGGUAGAGGGUCAGAAUAAUAAAACAUGAGGAUCACCCAUGUAGAAGGAGGGAAAGAAG [Laerxe] (Eterna round: R96, puzzle: Exclusion NG 2)”, the “apparent KD of MS2 coat protein” value by setting is: (input ligand: FMN 200 uM) 48.3 nM; under setting [1], 42 nM; (input ligand: none) 59.4 nM.

Consider “UGAACAUGAGGAUCACCCAUGUGGUUAGGUGAAAUCCUGCUGGAGGAUAUAAGUCCUGGUGCCGCUUAGAAGGCCAGCUGACAG [Eternabot solution 48] (Eterna round: R96, puzzle: Exclusion NG 3)”, for which the “apparent KD of MS2 coat protein” value reads like this: (input ligand: FMN 200 uM) 72 nM; under setting [1], 56.7 nM; (input ligand: none) 82.5 nM.

“UGACACACCUGAGGAUAUUCUGAACGUUUCCCAGAAGAAGGUAGGUACAGCGGGAGCGCCACAUGAGGAUCACCCAUGUCUACC [Eternabot solution 46] (Eterna round: R96, puzzle: Exclusion NG 1)”: the “apparent KD of MS2 coat protein” value was determined as 126 nM (input ligand: FMN 200 uM), 103 nM under setting [1] and 142 nM (input ligand: none).

With “UGAGCAAGAGGAUAUACAUGACGUGCCGUAGCACGAGGUCUACAUGAGGAUCACCCAUGUAGAAGGCUUGUUCU [Mat - Exclusion 2 - JL Mod - D5] (Eterna round: R97, puzzle: Exclusion 2)”, the “apparent KD of MS2 coat protein” value came out at 170 nM (input ligand: FMN 200 uM) and 34.2 nM (input ligand: none).

Turning to “UGAGCUACAGGAUAUAUAUGGCGACCGUGAGGUCGAAGGUUACAUGAGGAUCACCCAUGUAGAAGGGUAGUUCU [Mat - Exclusion 2 - JL Mod - D17] (Eterna round: R97, puzzle: Exclusion 2)”, the “apparent KD of MS2 coat protein” value by setting is: (input ligand: FMN 200 uM) 225 nM; (input ligand: none) 86.2 nM.

As for “UGAGCUUGAGGAUAUACAAGCUUGAGCUGAAAAGUUCGAGUACAUGAGGAUCACCCAUGUAGAAGGCGAGUUCG [-26.7, -25.2 kcal, A 31% 1bis and 1] (Eterna round: R97, puzzle: Exclusion 2)”, the “apparent KD of MS2 coat protein” value turned out to be 39.7 nM (input ligand: FMN 200 uM) and 26 nM (input ligand: none).

In the case of “UGAGGACAUGAGGAUCACCCAUGUAAGGAUAUGCGGAGAGUUUGGAGAGGUUGAGGAGGCAGAAGGUACGGGAU [JR_Exclu1_Sub046] (Eterna round: R96, puzzle: Exclusion 1)”, the “apparent KD of MS2 coat protein” value (input ligand: FMN 200 uM) came to 144 nM, the “apparent KD of MS2 coat protein” value under setting [1] was 47.4 nM and the “apparent KD of MS2 coat protein” value (input ligand: none) stood at 103 nM.

In the case of “UGAGGACAUGAGGAUCACCCAUGUAAGGAUAUGCGGAGAGUUUGGAGAGGUUGAGGAGGCAGAAGGUACGGGAU [JR_Exclu1_Sub046] (puzzle: Exclusion 1)”, the “apparent KD of MS2 coat protein” value under setting [2] turned out to be 102 nM.
